Data on one substance can be found in PMC2156126.

This test deals with GST-VCA (GST fusion of human N-WASP residues 392-505) on glutathione Sepharose (human) (UniProt O00401). Nature of the test: pull-down.
Chain of GST-VCA (GST fusion of human N-WASP residues 392-505) on glutathione Sepharose (human) (O00401 392-505): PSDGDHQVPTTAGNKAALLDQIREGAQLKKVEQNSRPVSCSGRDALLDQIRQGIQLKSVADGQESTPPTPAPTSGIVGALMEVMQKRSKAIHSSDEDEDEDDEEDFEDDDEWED

Substance “Arp2/3 complex endogenous in human platelet extracts (from UniProt P61158;P61160;O15145)” registered a percent depleted from the extract by the beads above 80%.
